Experimental data taken from paper PMC9067507, “F/YGG-motif is an intrinsically disordered nucleic-acid binding motif”.

Assays:
Assay in all cases: MST; 10 mM MgCl2; MST: 20 mM HEPES pH 7.5, 10 mM MgCl2, 0.05% Tween-20; 420 nM labelled U30 with protein titrated, or labelled peptide with RNA titrated; temperature not stated
hnRNPA2 LCD deltaNAID2 = target: T1, hnRNPA2 LCD deltaNAID2 (human, UniProt P22626 200-306, del307-353); details: protein: recombinant; (stated for LCD only)
T1 sequence: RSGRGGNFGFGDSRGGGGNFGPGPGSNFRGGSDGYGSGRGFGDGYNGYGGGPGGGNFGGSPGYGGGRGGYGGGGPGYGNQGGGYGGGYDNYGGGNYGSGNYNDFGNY

hnRNPA2 LCD deltaNAID1 = target: T2, hnRNPA2 LCD deltaNAID1 (human, UniProt P22626 200-353, del239-306); details: protein: recombinant; (stated for LCD only)
T2 sequence: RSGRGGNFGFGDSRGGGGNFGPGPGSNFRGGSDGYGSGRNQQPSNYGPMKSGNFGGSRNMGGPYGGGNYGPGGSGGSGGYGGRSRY

hnRNPA2 LCD = hnRNPA2 LCD (human, UniProt P22626 200-353); details: protein: recombinant; tags: 6xHis removed by TEV
hnRNPA2 LCD, sequence (P22626 200-353): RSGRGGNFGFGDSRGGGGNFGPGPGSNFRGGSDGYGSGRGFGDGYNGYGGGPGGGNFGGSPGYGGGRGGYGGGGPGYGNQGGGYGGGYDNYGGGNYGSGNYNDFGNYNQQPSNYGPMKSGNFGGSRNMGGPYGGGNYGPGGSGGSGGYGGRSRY

**Q.** Which results are given for UUUUUUUUUUUUUUUUUUUUUUUUUUUUUU (ssRNA) [U30 (labelled)]?
**A.** Kd (hnRNPA2 LCD deltaNAID2): 13 ± 3 µM; Kd (hnRNPA2 LCD deltaNAID1): 41 ± 1.4 µM; Kd (hnRNPA2 LCD): 0.72 ± 0.002 µM
